Assay results as given in patent US12077763B2, “RNA-based control of powdery mildew” (Greenlight Biosciences, Inc., priority 2021, dated 2024).

Test system: E. necator
Test: Leaf disc assay, dry inoculum (settling tower), decrease in disease severity / hyphal growth (Example 2)
Settings: decrease in disease severity (hyphal growth) relative to untreated control, value ± SE; for % decrease =/− SE TP1: time point 1 (untreated control hyphal growth ≥50%); for % decrease =/− SE TP2: time point 2

B1: GS1863: dsRNA trigger SEQ ID NO 167; gene target Chromatin remodeling factor mit1 (nucleic acid)
chain: TTGAGCCAAAATAAGAAACGACACGTAGCTTTGGAGCCCATTTTTTAATTTCTCGACGCCAATTAAGGCAAGTCGAATTAGGAGCTACAACTAAAAAGGGCCAACATTTCGAGTGATTTTTGACAATTGCTACGATAAAGGCAATAATTTGTATTGTCTTTCCTAAGCCCATCTCATCTGCTAGAATAACATTTTTCTTTTGATGGAAGTTATAAAGTAGCCAATTTAGACCTTCCATTTGATATTGCATCATCTTTCCTCCTGTGAGTTGTAGAGGTTGCTCTTTCATCTCAACTCTTCTTGAAAAATTTAATTTTCGGAACATCTGTAAGCGATGGTCCATAGCTGAAGTTGAGGATTGCCTAAAGTATTTTCCATCAATAAATTCATTATAGGCGGTAATAAAGCTTTGATATCTTTCGATATTCTCAATTTTTGGGGGCTCCATCCATACTGCTTCATCATAAGCAAGACCTTTGAATTTTACAAAGACTTCAGTGATCATATTAGCAGCAGCCTTGTCTATCTT
- % decrease =/− SE TP1: 6 ± 5%

B2: GS1864: dsRNA trigger SEQ ID NO 197; gene target NEDD8-conjugating enzyme UBC12 (nucleic acid)
chain: TTCCAAAAAAAAAACTCATCAGGTTTTTAGAACACAATCAAACGTTTGGCCCTTAATAGTACCGCCAGCCATACTATTTCTAACATTTCTCTTGAATATCTCACGATGATTCCGAAGATCTTCGGCGGCTTCTTTATTCAACGGATCCGAAGAATTTGGCTCTAAAAAGAGAAAAATAATTAAAGAATTCCAGTAGCGAACTAGACCAGAGTAGAGCAGGAAGGAGTATTCGATGATACCTAAAAAAAGACACACACGTTATAAAATGGCTCTAAGAATGGTATTGAGGCTAATGTATATTTTTTTCTTTGAAAAAACAAAAAACAAACAAACAAAAAAATTATGGATAATAAGTAATCCTACCACTACACTCTGTAGATTTAGGACCGGTTTCCAGTCCTCACGCAAGATATTGAGACACACGTTTCCATCAAGATCGATATTTGGATGATAAATCTTTTCTATACATTTTACTTTTGGCGCTTCATGAGGGAAGTTTTGAGAGATAGAAAAAGTGAATTGAAAAC
- % decrease =/− SE TP1: 5 ± 6%
- % decrease =/− SE TP2: 3 ± 9%

B3: GS1865: dsRNA trigger SEQ ID NO 183; gene target Protein transport protein SEC31 (nucleic acid)
chain: TTGAGCTTCTGGGTGTTTTGTAAGAGAGTTTGTGTTAAATAGTGTCTGTATAGAAATTTTGCCATCAAAAGACGCAGTTGCAGAAAGTGCTGGATTATGAGGATGAAATCGAGTCTGAAAGGTCCAGTTTGTAGCTTCAGGAAATTCTCCCAGGAGTTCTCCAAGCTGTGGGTTCCATAAGATAGTTCTATTATCTTTGCCACATGATAACAGCAAATTGCTGTCTTGTTGACACCATGAGATTGATAAAATTCCCTGATTATGGCCTTGTAATGTACATTCTGGTGCATTGGAATTTCGTAAATCCCAAAGAAGAATAACTGGTTTTGTATCATCAGGTGTTGCTGTTAGTAGCTTCGTTGAATTTTCTGGATCCCAAGCAATAGCTCCAACAGCTTTACGATTGTTATTCAAAGTCAATGACGCTTTTTTGGTTTTTAAGTCCCACACTGTAACAAATCCTCCAGTTCCACCAGTAGCCAAAATATGAGGAACTTTCCTATTCCAGGCAACACATTCAAGGTCAT
- % decrease =/− SE TP1: 5 ± 6%
- % decrease =/− SE TP2: 3 ± 10%

B4: GS1866: dsRNA trigger SEQ ID NO 163; gene target Proline-rich protein LAS17 (nucleic acid)
chain: ATATCGGGAGGGGTGGCGGTAATGAGGAAGGCTCTTGAGCTGCTATGAGAGATGGTGATGATTGTGCCTGATGTACTGGAAGTAATGGTAGTGATGATGTTTGAGTAACACGAAGAGATGTTGGCGATGGAGCTGGAGAAACTGAGGGATTTTTTGGTATTTGAGAGACTGTGAAAGATTGAGGTTGTGGACTATTTGGCTCTCTATTCTTTTCACAGTCTCGAGTAGTTATTTGAACACTAGGACGTAACGAGGAAGGAGGCAAAGGAGGTGTTGCTGATGCAGATACTATCGGAATTTTTGGAGGTAATTGGGGAGGAGGGAGATGCTCACTTTTAGCAAGAGGGGTTGTGACTTGGGAAGAACTTGTATGAAAAACACGAGTTAAAGGTGGTATTGTTTCACGTGGTGGTATTAAAGGCCCCGCACGATGTGAAATAAAAGATCCAGTGTTTTTCTCACCTGAAAAAGGTGGTGGTACGTTGAATTTAGAGACGCCCGATTCCGAATTTTCTTTAGAATTTTT
- % decrease =/− SE TP1: 8 ± 5%
- % decrease =/− SE TP2: 13 ± 7%

B5: GS1867: dsRNA trigger SEQ ID NO 126; gene target hypothetical_protein_BGT96224_Ac30495 (nucleic acid)
chain: AAACCGAAATCTACGACAGGTAAAGCATCACGCAATATAACGGCGAAAGCCCACCTGCTATCACCTACTCTCAACGTCCTACGAAAAGATGTTGTTTTCGAGAAAGCGCTCAGTGACATGCATGGCTCTTCCGATAAATACCTAGATAAAGACTCTAGCATGGAAATTAATATAGGTGATGATATCAGCGAGGGGTCGAATGCGGATCCCTTTGCAGAAGAACTCCCCACGCCATCAATAGCGCCAGATACTGCGGTAGCTACCACACTTAACTTAGCACATGGACAGGACGTGAAAGATAATCACAATGCGGCTAGTCTCATGGATGCAATCAAAGGCCTACTAGACTTGACAAATGATTACTTAAAAAATCTTGAAGCACATCACCCAGGAGTTGGGGCAGACTTCTTAGCGCTTCTAGCGGACGGAGCCTCCCGAGCTATGCGCGGAGAGCGAGTTTATTCTAATACATCAAAAGTATGCGAAGGTAGAAAACAAGGAACACAGGCAACATGGACTGA
- % decrease =/− SE TP1: 7 ± 4%

B6: GS1868: dsRNA trigger SEQ ID NO 177; gene target Glycine-rich RNA-binding protein 4, mitochondrial (nucleic acid)
chain: TGCCCCATGAGAGACCGCCAATAAAGAGTTTAGGCATTCTGTATGTTAATTTTTATCCTCGCGAACCTGGTATAAAGTCTTAATCTCCGCGTGCATCCTTGAATAAAATGTGACAACGCCATCGAGTTTGAGAGGGAGAGAGAAAGTGGATACGGAACAGTTAAAGAAAAGTACATCGGGATATAACAAAACCTCCGTGTAGCATACAAATGAGGGGACGATGAATATATTTGTTTGCTTGGTGAACAGGCCGGGGAGGATTGGGATGAAGTAATGTTAGTACACACTGTCAGAGAACTAACGAACTTCTAGTGAGTTGCTCAAGAAGAGCAAAGTGCTGCGTTTATAGGGAGACCTGATGAACTTTATTAATTCGGTTTGGAGGAGCAATTTTTATAATGGACTGGAGTAACCGATCAGTCAATTTCGTGATAGAACTATTCTTCCGCAAATTGAGACGCAAAAGCTCTCTGATTGTGATGACAAGAGTTTTGCGGGTCTCAATAAAGGAATTGATGTTT
- % decrease =/− SE TP1: 1 ± 6%

B7: GS1869: dsRNA trigger SEQ ID NO 166; gene target General alpha-glucoside permease (nucleic acid)
chain: CGGCCCCATCGAACCATACTTTTTGCAAAAAGATGGCATCGCATAGAATTGAGCAAGCAAGAGATTATCGTAACCTTCCATAATAATACCAGTTGAGATAGCAACACTATAAACAGCAGCTGGCCACCACAATTTTAGAGCTTCGTTGACAGTCATATTCTTTTCAAGCTCTTCCGCACGATGGGCACCCTGAGTGGTATAGTACTGACTCTTTTCCAAAGAAGGAGCTCGGCCAATGTCCTCCTCATGCTTGGCAGTAGTTTCAAGAATGGACTTGTCGATAATAGACATTTTGAGAGTTGAGAAGTCAAAAAAATTTTGAAGTAAAGATCAGACTAAAGGTGAGTTTGGGGATTTAAAAAAAGAATATTAGGGTAAGGTTATGATTGAGTTCACAAGGGAATAGGTTTTCTAGAAAGAGCATGAAGGAAAGACATAAAACCTGAGAGTGATATTTGGATAATTTTGAATTCCATCGTCAACAGCTTCGGGAGACAAGTCTTTATAGAATTCTGAT
- % decrease =/− SE TP1: 21 ± 7%
- % decrease =/− SE TP2: 17 ± 7%

B8: GS1870: dsRNA trigger SEQ ID NO 170; gene target Myosin-24 (nucleic acid)
chain: ATTTCTCATTCGCGTAGTTGATACAGAATTGCTCGAATGAGTTTTTTGCAAAGTGTTCGAATCCATAAATATCTAAAACTCCTATAAATGACTTGACACGGCTTAAGACTTCTTCAGCAGCCAACGCATAATTGATATTTTCAACAAGCCAGTCAAAAAGACTTGAATAAACAAATTTAGCGACCGAATCTCGAACAACAATGGCTTGCTGTTGGCTTAAGCTACTAACGACTTTATCTCCCCGGGTAATTAATTGCTTCTTGACTGTCCATCTAGCAAATTCCACCGGATCAATGCCCAAAATTGAAGCAGCAATCTCTAGAGAAGGCTCATTAGGAGTAAGTGAAGATTCATTTCTTGTGGCAGTAATCTTAACATTTCCAAGATGTAGTAATGCTGCAAGTATTTTAAATATTTCGGTCTGCTGATCCTGTTTGACTCCAATTGTTGCTAGGGACTTTTTGAGTGCTTCGAATTCGGCTTTATCATCAACTCCATCTATTGAAGGTGA
- % decrease =/− SE TP1: 11 ± 5%
- % decrease =/− SE TP2: 13 ± 8%

B9: GS1873: dsRNA trigger SEQ ID NO 153; gene target Probable serine/threonine-protein kinase fhkC (nucleic acid)
chain: CACATCGAGATATAAAACCCGAAAATATACTTCTCATGAATAGAACTCCTACTATTAAATTAGGTGATTTTGGCTTGGCCAAGATCGTTGGTGAGGAATCATTCACAACAAGCTTATGTGGAACACCCAGTTATGTTGCACCAGAGATCCTTGAAGACTCAGATAATCGGCGTTACAATCGAGCTGTTGATATTTGGGCTCTAGGTGTTGTTCTTTACATTTGCCTCTGTGGCTTCCCGCCATTCTCTGATGAATTGACCAGTAATGATTATCCTTACACTCTTGTCCAGCAGATTAAAATTGGTCAGTTCGACTTCCCATCGCCATATTGGGATAATATAGGAGACTCAGCTCTTGACCTCATTGACAAAATGTTAACAGTAGATGTTAACAAACGCATTAATATTGATCAATGTCTTGAACATCCATGGCTAACTCAAAGAGAATCAACGACTTTGCCAGGTGATTACTCTGAAGTTCTTGACGAACTT
- % decrease =/− SE TP1: 4 ± 4%
